# Measurements: patent publication US20170369590A1 (published 2017)
# Numbering of substitutions follows the chain as printed.
# B1: HuMab 127 (antibody, V domains shown)
# VH: EVQLVQSGAEVKKPGESLTISCKGSGYSFSIYWIGWVRQMPGKGLEWMGIIFPGDSDIRYSPSFQGQVTISADKSISTAYLQWSSLKASDTAMYYCARQPGDWSPRHWYFDLWGRGTLVTVSS
# VL: VIWMTQSPSLLSASTGDRVTISCRMSQGISSYLAWYQQKPGKAPELLIYAASTLQSGVPSRFSGSGSGTDFTLTISYLQSEDFATYYCQQYYSFPLTFGGGTKVEIK
# B2: HuMab 098 (antibody, V domains shown)
# VH: EVQLLESGGGLVQPGGSLRLSCAASGFTFSNYGMSWVRQAPGKGLEWVSAISGSAYSTYYADSVKGRFTISRDNSKNTLWLQMNSLRAEDTAVYYCAKAHYHGSGSYYTLFDYWGQGTLVTVSS
# VL: DIQMTQSPSSLSASVGDRVTITCRASQGISSWLAWYQQKPEKAPKSLIYAASSLQSGVPSRFSGSGSGTDFTLTISSLQPEDFATYYCQQYNSYPYTFGQGTKLEIK
# B3: HuMab 159 (antibody, V domains shown)
# VH: EVQLVQSGAEVKKPGESLKISCKGSGYNFTSYWIGWVRQMPGKGLEWMGIIYPGDSDTRYSPSFQGQVTISADKSISTAYLQWSSLKASDTAMYYCARWGTYYDILTGYFNWFDPWGQGTLVTVSS
# VL: B2 VL with N92Y, S93I, Y96W, L104V
# B4: HuMab 025 (antibody, V domains shown)
# VH: QVQLQQWGAGLLKPSETLSLTCAVYGGSFSDYYWNWIRQPPGKGLEWIGEIHHSGSTNYNPSLKSRVTISVDTSKNQFSLKLSSVTAADTAVYYCARGYYDSGVYYFDYWAQGTLVTVSS
# VL: B2 VL with S31R, Q55R, Y96I, K103R
# B5: HuMab 153 (antibody, V domains shown)
# VH: QVQLVESGGGVVQPGRSLRLSCAASGFTFSDYVIHWVRQAPGKGLEWVTVISYDGSNKYYADSVKGRFTISRDNSKNTLYLQMNSLSAEDTAMYYCARGGITGTTGVFDYWGQGTLVTVSS
# VL: B2 VL with A50D, S67Y, T72S, T85I, N92K, Y96I, K103R
# B6: HuMab 050 (antibody, V domains shown)
# VH: EVQLLESGGGLVQPGGSLRLSCAASGFTFSSYAMNWVRQAPGKGLEWVSAISGRGGTTYYADSVKGRFTISRDNSKNTLYLQMSSLRAEDTAVYYCAKARANWDYFDYWGQGTLVTVSS
# VL: B2 VL with L11V, Q38H, E41G, S46L, S53I, Y91A, Y94F, Y96I, K103R
# B7: HuMab 129 (antibody, V domains shown)
# VH: QVQLVESGGGVVQPGRSLRLSCAASGFTFSTFAIHWVRQAPGKGLEWVAVISYDGGHKFYADSVKGRFTISRDNSKNTLYLQMNSLRAEDTAMYYCARGLGVWGAFDYWGQGTLVTVSS
# VL: EIVLTQSPATLSLSPGERATLSCRASQSVSSYLAWYQQKPGQAPRLLIYDASNRATGIPARFSGSGSGTDFTLTISSLEPEDFAVYYCQQRSNWWTFGQGTKVEIK
# B8: HuMab 084 (antibody, V domains shown)
# VH: QVQLVQSGAEVKKPGSSVKVSCKASGGTFRTYAINWVRQAPGQGLEWMGRINTVLGIVNHAQKFQGRVTITADKSTNTAYMELNSLRSEDTAVYYCAREKGVDYYYGIEVWGQGTTVTVSS
# VL: DIQMTQSPSSVSASVGDRVTITCRASQGISSWLAWYQHKPGKAPKLLIYVASTLQSGVPSRFSGSGSGTDFTLTISSLQPEDFATYYCQQANSFPLTFGGGTKVEIK
# B9: HuMab 132 (antibody, V domains shown)
# VH: QVQLVQSGAEVKKPGASVKVSCKASGYTFTSYGISWVRQAPGQGLEWMGWISAYNGNSNYVQKFQGRVTMTTDTTTSTAYMELRSLTSDDTAVYYCAREYSYDSGTYFYYGMDVWGQGTTVTVSS
# VL: EIVLTQSPATLSLSPGERATLSCRASQSVSSYLAWYQQKPGQAPRLLIYDASNRATGIPARFSGSGSGTDFTLTISSLEPEDFAVYYCQQRSNWPMYTFGQGTKLEIK
# B10: HuMab 169 (antibody, V domains shown)
# VH: QVQLVQSGAEVKKPGASVKVSCKASGYTFTNYGISWVRQAPGQGLEWMGWLSAYSGNTIYAQKLQGRVTMTTDTSTTTAYMELRSLRSDDTAVYYCARDRIVVRPDYFDYWGQGTLVTVSS
# VL: EIVLTQSPATLSLSPGERATLSCRASQSVSSYLAWYQQKPGQAPRLLIYDASNRATGIPARFSGSGSGTDFTLTISSLEPEDFAVYYCQQRSNWPRTFGQGTKVEIK
# Target: T1, human epidermal growth factor receptor 2 (HER2), membrane-bound on cells (human, UniProt P04626 23-1255)
# Test: FACS binding; AU565 cells
row,EC50 [µg/mL],Binder
1,2.29,B1
2,0.336,B2
3,1.3,B3
4,0.58,B4
5,0.626,B5
6,0.722,B6
7,0.578,B7
8,0.491,B8
9,0.911,B9
10,0.908,B10

# Target: T1, human epidermal growth factor receptor …
# Test: FACS binding; A431 cells
row,EC50 [µg/mL],Binder
1,0.27,B1
2,0.101,B2
3,0.855,B3
4,0.128,B4
5,0.244,B5
6,1.14,B6
7,0.316,B7
8,0.498,B8
9,0.068,B9
10,0.415,B10
